Measured values taken from patent US20220089766A1 (published 2022).

B1: bsAb7945 (bispecific antibody, human IgG4 S228P, kappa)
heavy 1: QVQLVQSGAEVKKPGSSVKVSCKASGGPFRSSSFSWVRQAPGQGLEWMGGIIPILGKTNYAQKFQGRITIVTDESTTTVYMELSSLRSEDTAVFYCVRGSSLFDYWGQGTLVTVSSASTKGPSVFPLAPCSRSTSESTAALGCLVKDYFPEPVTVSWNSGALTSGVHTFPAVLQSSGLYSLSSVVTVPSSSLGTKTYTCNVDHKPSNTKVDKRVESKYGPPCPPCPAPPVAGPSVFLFPPKPKDTLMISRTPEVTCVVVDVSQEDPEVQFNWYVDGVEVHNAKTKPREEQFNSTYRVVSVLTVLHQDWLNGKEYKCKVSNKGLPSSIEKTISKAKGQPREPQVYTLPPSQEEMTKNQVSLTCLVKGFYPSDIAVEWESNGQPENNYKTTPPVLDSDGSFFLYSRLTVDKSRWQEGNVFSCSVMHEALHNHYTQKSLSLSLGK
heavy 2: QVQLQESGPGLVKPSETLSLTCTVSGGSISSYYWSWIRQPPGKGLEWIGYIYYSGITHYNPSLKSRVTISVDTSKIQFSLKLSSVTAADTAVYYCARWGVRRDYYYYGMDVWGQGTTVTVSSASTKGPSVFPLAPCSRSTSESTAALGCLVKDYFPEPVTVSWNSGALTSGVHTFPAVLQSSGLYSLSSVVTVPSSSLGTKTYTCNVDHKPSNTKVDKRVESKYGPPCPPCPAPPVAGPSVFLFPPKPKDTLMISRTPEVTCVVVDVSQEDPEVQFNWYVDGVEVHNAKTKPREEQFNSTYRVVSVLTVLHQDWLNGKEYKCKVSNKGLPSSIEKTISKAKGQPREPQVYTLPPSQEEMTKNQVSLTCLVKGFYPSDIAVEWESNGQPENNYKTTPPVLDSDGSFFLYSRLTVDKSRWQEGNVFSCSVMHEALHNRFTQKSLSLSPGK
light: not shown
B2: bsAb6031 (bispecific antibody, human IgG4 S228P, kappa)
heavy 1: EVQLVESGGGLVQPGRSLRLSCAASGFTFDDYAMHWVRQAPGKGLEWVSGISWKSDNIGYADSVKGRFTISRDNAKNSLYLQMNSLRAEDTALYYCAKALGGWKFDYYYGMDVWGQGTTVTVSSASTKGPSVFPLAPCSRSTSESTAALGCLVKDYFPEPVTVSWNSGALTSGVHTFPAVLQSSGLYSLSSVVTVPSSSLGTKTYTCNVDHKPSNTKVDKRVESKYGPPCPPCPAPPVAGPSVFLFPPKPKDTLMISRTPEVTCVVVDVSQEDPEVQFNWYVDGVEVHNAKTKPREEQFNSTYRVVSVLTVLHQDWLNGKEYKCKVSNKGLPSSIEKTISKAKGQPREPQVYTLPPSQEEMTKNQVSLTCLVKGFYPSDIAVEWESNGQPENNYKTTPPVLDSDGSFFLYSRLTVDKSRWQEGNVFSCSVMHEALHNHYTQKSLSLSLGK
heavy 2: EVQLVESGGGLVQPGGSLRLSCAASGFTFSRNNMHWVRQAPGKGLEYVSGISSNGGRTYYADSVKGRFTISRDNSKNTLYLQMGGLRAADMAVYFCTRDDELLSFDYWGQGTLVTVSSASTKGPSVFPLAPCSRSTSESTAALGCLVKDYFPEPVTVSWNSGALTSGVHTFPAVLQSSGLYSLSSVVTVPSSSLGTKTYTCNVDHKPSNTKVDKRVESKYGPPCPPCPAPPVAGPSVFLFPPKPKDTLMISRTPEVTCVVVDVSQEDPEVQFNWYVDGVEVHNAKTKPREEQFNSTYRVVSVLTVLHQDWLNGKEYKCKVSNKGLPSSIEKTISKAKGQPREPQVYTLPPSQEEMTKNQVSLTCLVKGFYPSDIAVEWESNGQPENNYKTTPPVLDSDGSFFLYSRLTVDKSRWQEGNVFSCSVMHEALHNRFTQKSLSLSPGK
light: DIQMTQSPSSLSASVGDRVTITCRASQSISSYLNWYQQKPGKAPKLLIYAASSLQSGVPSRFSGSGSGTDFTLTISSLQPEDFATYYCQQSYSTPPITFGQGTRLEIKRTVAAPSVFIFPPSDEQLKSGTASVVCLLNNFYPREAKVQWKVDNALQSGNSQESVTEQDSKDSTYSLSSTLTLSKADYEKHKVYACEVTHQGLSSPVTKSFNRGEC
notes: also called anti-CD38×CD28 bispecific antibody

Key:
[1] = molecular target: T1, human CD38 on target cells (HEK293/hCD20/hCD38, MOLP8, NALM-6, NALM-6/hPD-L1) (human, UniProt P28907 1-300); assay: cell-based or functional assay
[2] = molecular target: T1, human CD38 on target cells …; assay: cell-based or functional assay; remark: listed apart in the source
[3] = molecular target: T1, human CD38 on target cells …; assay: cell-based or functional assay; remark: listed apart in the source
[4] = molecular target: T1, human CD38 on target cells …; assay: cell-based or functional assay; remark: listed apart in the source
[5] = molecular target: T2, Monomeric human CD38 with a c-terminal myc-myc-hexahistidine tag (hCD38.mmH) (human, UniProt P28907 43-300); assay: SPR (Biacore 3000, 25 C); bsAb captured on anti-human Fc, hCD38.mmH injected; 1:1 fit
T2 construct: also called bsAb3305; not shown: C-terminal myc-myc-hexahistidine tag

[6] = molecular target: T3, Dimeric human CD28 with a c-terminal mouse Fc tag (hCD28.mFc) (human); assay: SPR (Biacore 3000, 25 C); hCD28.mFc captured on anti-mouse Fc, bsAb injected; 1:1 fit
T3 construct: also called bsAb2012; Human CD28 extracellular domain (N19-P152).mFc
Method: (§1) For CD28 kinetic determinations, SPR experiments were performed using a Biacore 3000 instrument at 25° C. Dimeric human CD28 with a c-terminal mouse Fc tag (hCD28.mFc, bsAb2012) were captured for 37 seconds at a flow rate of 8 uL/min on a CM5 anti-mouseFc-(GE)-coupled surface. Approximately 150 RU of hCD28.mFc were captured. […] Dissociation was measured for 10 minutes. The KD and t_{1/2} were calculated by fitting the double-referenced sensorgrams to a 1:1 binding model.

[7] = molecular target: T3, Dimeric human CD28 with a c-terminal …; assay: SPR (Biacore, 25 C); group summary of Table 9
Method: as §1

[8] = molecular target: T2, Monomeric human CD38 with a c-terminal …; assay: SPR (Biacore, 25 C); group summary of Table 8
Method: For CD38 kinetic determinations, SPR experiments were performed using a Biacore 3000 instrument at 25° C. Antibodies were captured for 37 seconds at a flow rate of 8 uL/min on a CM5 anti-humanFc-(bsAb2567)-coupled surface. Approximately 230 RU of each antibody were captured. […] Dissociation was measured for 10 minutes. The KD and t½ were calculated by fitting the double-referenced sensorgrams to a 1:1 binding model.

Binder | IFNγ release EC50; T cells + HEK293/hCD20/hCD38, + TAAxCD3 (bsAb1979) [1] [nM] | IFNγ release EC50; T cells + MOLP8, + TAAxCD3 (bsAb5458) [1] [nM] | IL2 release EC50; T cells + NALM-6, + Cemiplimab [2] [nM] | IL2 release EC50; T cells + NALM-6/hPD-L1, + Cemiplimab [2] [nM] | IL2 release EC50; T cells + NALM-6/hPD-L1, + IgG4^P [2] [nM] | T-cell proliferation EC50; T cells + HEK293/hCD20/hCD38, + TAAxCD3 (bsAb1979) [3] [nM] | IL2 release EC50; T cells + HEK293/hCD20/hCD38, + TAAxCD3 (bsAb1979) [4] [nM] | IL2 release EC50; T cells + MOLP8, + IgG4^P isotype control [4] [nM] | other results
B1 | 0.123 | 0.00424 | 0.0981 | 0.143 | 0.169 | 0.000894 | 0.00502 | 0.00971 | T-cell proliferation EC50; T cells + HEK293/hCD20/hCD38, + IgG4^P isotype control [3]: 45.6 nM; IL2 release EC50; T cells + HEK293/hCD20/hCD38, + IgG4^P isotype control [4]: 41.4 nM
B2 | 0.294 | 0.748 | 2.44 | 4.39 | 2.64 | 0.143 | 0.199 | 0.653 | Kd [5]: 7.08 nM; koff [5]: 0.000748 s⁻¹; kon [5]: 106000 M⁻¹ s⁻¹; t½ [5]: 15.4 min; IL2 release EC50; T cells + NALM-6, + IgG4^P [2]: 1.68 nM; Kd [6]: 25.9 nM; koff [6]: 0.00149 s⁻¹; kon [6]: 57400 M⁻¹ s⁻¹; t½ [6]: 7.8 min; T-cell proliferation EC50; T cells + MOLP8, + IgG4^P isotype control [3]: 0.467 nM; Kd [7]: < 26 nM; Kd [8]: < 10 nM; IL2 release EC50; T cells + MOLP8, + TAAxCD3 (bsAb5458) [4]: 1.02 nM
